Columns and labels:
[1] = molecular target: S2A5-L1^A (S2A5 with alanine substitution in light chain region 26-30C) (mouse | human); assay: BLI
[2] = molecular target: GTV Gn head domain (residues 19-337) (Guertu virus (GTV), GenBank KT328592.1, UniProt A0A0S2Z2X2); assay: ELISA

Molecule	fold decrease of binding affinity against WT S2A5 [1]	binding result [2]
SFTSV Gn head domain protein (residues 20-340, strain WCH97, genotype A) (domain or fragment)	11 fold	–
mAb N1D10 (mouse variable regions on human IgG1) (antibody, V domains shown) VH: EVKLVESGGGLVQPGGSLKLSCAASGFTFSTYTMSWVRQTPEKRLEWVAYISNGGGSTYYPDTVKGRFTISRDNAKNTLYLQMSSLNSEDTAMYYCARSYGNFDVWGAGTTVTVSS VL: DVVMTQTPLSLPVSFGDQVSISCRSSQSLANSYGNTYLSWYLHKPGQSPQLLIYGISKRFSGVPDRFSGSGSGTDFTLKISTIKPEDLGMYYCLQGTHQPWTFGGGTKLEIK	–	binds
mAb S2A5 (mouse variable regions on human IgG1) (antibody, V domains shown) VH: EVQLQQSGPELVKPGASVKVSCKASGYSFSDDNMYWVKQSHGKSLEWIGYIDPDNGGTSYNQKFKGKATLTVDKSSSTAFMHLNSLTSEDSAVYYCAREDYYGSRAMDYWGQGTSVTVSS VL: DIVLTQSPASLAVSLGQRATISCKASQSVDYAGDSYMNWYQQKPGQPPKLLIYAASNLESAIPARFSGSGSGTDFTLNIHPVQEEDAATYYCQQSYEDPRTFGGGTKLEIK	–	binds
mAb B1G11 (mouse variable regions on human IgG1) (antibody, V domains shown) VH: EVKLMESGGGLVQPGDSLRLSCAISGFTFSDYYMSWVRQPPGKALEWLGFIRNKAKGYTTEYSASVKGRFTISRDNSQSILYLQMNTLRAEDSATYYCARDYRYDDEYYYAMDYWGQGTSVTVSS VL: GVVMTQTTSSLSASLGDRVTISCSASQGISNYLNWYQQKPDGTVKLLIYYTSILHSGVPSRFSGSGSGTDYSLTISNLEPEDIATYYCQQYSKFPRTFGGGTKLEIK	–	binds

Reference: PMC11327358 (Nature Communications, 2024)
